Series [1] has as its target T1, NicX (2,5-dihydroxypyridine dioxygenase) (Pseudomonas putida, UniProt Q88FY1).
T1 construct: full-length WT in pET-24a, C-terminal 6xHis tag, E. coli BL21(DE3), ~39 kDa, homohexamer, mononuclear Fe(II); domains residues 2-151 and 152-350
T1 sequence (Q88FY1 1-350): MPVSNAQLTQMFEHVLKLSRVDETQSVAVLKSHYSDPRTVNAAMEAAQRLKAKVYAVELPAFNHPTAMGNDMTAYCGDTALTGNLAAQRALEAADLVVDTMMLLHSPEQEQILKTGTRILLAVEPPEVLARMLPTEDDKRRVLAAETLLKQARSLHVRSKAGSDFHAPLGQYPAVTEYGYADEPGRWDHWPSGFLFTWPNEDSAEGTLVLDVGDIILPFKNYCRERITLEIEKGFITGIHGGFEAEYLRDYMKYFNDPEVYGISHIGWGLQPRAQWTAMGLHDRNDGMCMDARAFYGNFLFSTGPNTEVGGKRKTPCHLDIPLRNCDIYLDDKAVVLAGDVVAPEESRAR
The series can be described thus: X-ray crystal structure, […] Å, soaked crystals. Type of series: binding. The note with it: soaked with 5 mM Fe2+, then 5 mM DHP and 20 mM sodium dithionite.

In the next series the test system is T2, Oc1ccc(O)nc1.
T2 construct: full-length WT in pET-24a, C-terminal 6xHis tag, E. coli BL21(DE3), ~39 kDa, homohexamer, mononuclear Fe(II); domains residues 2-151 and 152-350
Briefly: purified protein. It is filed as biochemical, Pseudomonas putida. The note with it: 20 mM Tris-HCl pH 8.0, 50 µM FeCl2, 25 °C, O2 (air).

Substrate in the series “purified protein”: Oc1ccc(O)nc1
Briefly: purified protein. To be noted: 20 mM Tris-HCl pH 8.0, 50 µM FeCl2, 25 °C, O2 (air). It is filed as biochemical, Pseudomonas putida.

Series [2] deals with the molecule itself. Briefly: crystal structure; hanging-drop vapor diffusion at 20 °C, 20% PEG 3350, pH 7.0; six molecules in the asymmetric unit; also crystals soaked with Fe2+ and DHP.

As for `Oc1ccc(O)nc1` [DHP, 2,5-dihydroxypyridine], the “X-ray crystal structure, 2.20 Å, soaked crystals” value in series [1] (active site of subunits C, D, E, F) was “four subunits (C, D, E, and F) of the six constituent molecules”. `O=CNC(=O)/C=C\C(=O)O` [NFM, N-formylmaleamic acid]: the “X-ray crystal structure, 2.20 Å, soaked crystals” value in series [1] (active site of subunits A and B, formed in crystal from DHP) was “the other subunits (A and B) contain the product NFM”. Broadly, the Km is the substrate concentration at which the rate is half of its maximum. For “NicX (2,5-dihydroxypyridine dioxygenase) (Pseudomonas putida KT2440; E308A)”, in the series on Oc1ccc(O)nc1, the Km came out at 95.85 ± 3.68 µM. As to “NicX (2,5-dihydroxypyridine dioxygenase) (Pseudomonas putida KT2440; V175F)”, the Km in the series on Oc1ccc(O)nc1 came out at 117.9 ± 3.68 µM.

B1: NicX (2,5-dihydroxypyridine dioxygenase) (Pseudomonas putida KT2440) (protein)
chain: T1 sequence (Q88FY1 1-350)
notes: full-length WT in pET-24a, C-terminal 6xHis tag, E. coli BL21(DE3), ~39 kDa, homohexamer, mononuclear Fe(II); domains residues 2-151 and 152-350
For the molecule B1, the Km in the series “purified protein” amounted to 94.9 ± 3.84 µM.

B2: 2,5-Dihydroxypyridine dioxygenase (NicX) from Pseudomonas putida KT2440 (enzyme, UniProt Q88FY1 1-350, looked up)
chain: T1 sequence (Q88FY1 1-350)
notes: NicX, 2,5-dihydroxypyridine dioxygenase of Pseudomonas putida KT2440, full-length wild type; residues 2-350 described in the structure; Cloned into pET-24a between NdeI and HindIII with a C-terminal His tag; in PDB 7CN3 the crystals were soaked with Fe2+ and DHP (subunits C-F hold DHP, A and B hold NFM); also called WT NicX; wild type NicX; source: E. coli BL21(DE3), purified (Ni-NTA, Superdex200 …)
As a reminder, the stoichiometry N is a count of units in the complex or per binding partner. Consider B2, for which the “stoichiometry N” value in series [2] was 6.

B3: SeMet-substituted NicX (enzyme, Pseudomonas putida KT2440, UniProt Q88FY1 1-350, looked up)
chain: T1 sequence (Q88FY1 1-350)
modifications: selenomethionine (SeMet) substituted
notes: NicX, 2,5-dihydroxypyridine dioxygenase of Pseudomonas putida KT2440, selenomethionine-substituted form of the full-length construct; Same construct as m1, expressed with selenomethionine for SAD phasing; also called SeMet-NicX; Se-NicX; source: E. coli B834(DE3) in M9 minimal media, purified (Ni-NTA, Superdex200 gel filtration)
In the case of B3, the binding result in series [2] was “binds”.

The values are drawn from publication PMC7910607, “Structure-guided insights into heterocyclic ring-cleavage catalysis of the non-heme Fe (II) dioxygenase NicX” (Nature Communications, 2021).
